Here are results for six molecules from patent US20100093980A1 (Biogen, published 2010).

This test addresses T1, purified α4β1 VLA4 integrin (UniProt P13612 34-1032; P05556 21-798).
T1 construct: Purified VLA4 coated on the plate at 1 ug/ml; also called α4β1 integrin
Nature of the test: ELISA, Fab on plate-coated purified VLA4, goat anti-human IgG HRP detection. As to the method: In this assay, 1 ug/ml of purified VLA4 (in 50 mM NaHCO₃ buffer (pH 9.2) containing 10 ug/ml BSA) was coated on a 96-well (100 ul/well) Corning Easy-wash plate and incubated overnight at 4° C. Following incubation, the plate was blocked with 150 ul/well of blocking buffer (50 mM Tris-HCl pH7.5, 150 mM NaCl and 2% Dry Milk) for 60 minutes at room temperature. The plated was then washed four times with TBS Washing buffer (50 mM Tris-HCl pH 7.5, 150 mM NaCl, 0.05% Tween-20). Dilutions of each HP1/2 Fab to be tested were prepared in binding buffer (TBS buffer containing 2% Dry Milk) and 100 ul of each dilution was added to the designated wells (100 ul of TBS assay buffer was used as blank control). The plate was then incubated for 60 minutes at room temperature, and then washed four times with TBS Washing buffer. The detection antibody (goat anti-human IgG HRP conjugate) was added at 100 ul/well and the plated was again incubated at room temperature for 60 minutes and washed four times with TBS Washing buffer beforeadding 100 ul/well HRP Substrate buffer and incubating another 30-60 minutes. To stop the reaction, 100 ul of 1 NH2SO4 was added to each well. The plate was read in a Molecular Devices ELISA plate reader at […], and the data was analyzed using Softmax software and EC50 values calculated by GraphPad Prism 4. The EC50 values observed for the test Fab fragments with VH and VL domains are tabulated in […]
(In general: ELISA stands for enzyme-linked immunosorbent assay.)

T1 sequence (P13612 34-1032, form in doubt, chain 1 of 2): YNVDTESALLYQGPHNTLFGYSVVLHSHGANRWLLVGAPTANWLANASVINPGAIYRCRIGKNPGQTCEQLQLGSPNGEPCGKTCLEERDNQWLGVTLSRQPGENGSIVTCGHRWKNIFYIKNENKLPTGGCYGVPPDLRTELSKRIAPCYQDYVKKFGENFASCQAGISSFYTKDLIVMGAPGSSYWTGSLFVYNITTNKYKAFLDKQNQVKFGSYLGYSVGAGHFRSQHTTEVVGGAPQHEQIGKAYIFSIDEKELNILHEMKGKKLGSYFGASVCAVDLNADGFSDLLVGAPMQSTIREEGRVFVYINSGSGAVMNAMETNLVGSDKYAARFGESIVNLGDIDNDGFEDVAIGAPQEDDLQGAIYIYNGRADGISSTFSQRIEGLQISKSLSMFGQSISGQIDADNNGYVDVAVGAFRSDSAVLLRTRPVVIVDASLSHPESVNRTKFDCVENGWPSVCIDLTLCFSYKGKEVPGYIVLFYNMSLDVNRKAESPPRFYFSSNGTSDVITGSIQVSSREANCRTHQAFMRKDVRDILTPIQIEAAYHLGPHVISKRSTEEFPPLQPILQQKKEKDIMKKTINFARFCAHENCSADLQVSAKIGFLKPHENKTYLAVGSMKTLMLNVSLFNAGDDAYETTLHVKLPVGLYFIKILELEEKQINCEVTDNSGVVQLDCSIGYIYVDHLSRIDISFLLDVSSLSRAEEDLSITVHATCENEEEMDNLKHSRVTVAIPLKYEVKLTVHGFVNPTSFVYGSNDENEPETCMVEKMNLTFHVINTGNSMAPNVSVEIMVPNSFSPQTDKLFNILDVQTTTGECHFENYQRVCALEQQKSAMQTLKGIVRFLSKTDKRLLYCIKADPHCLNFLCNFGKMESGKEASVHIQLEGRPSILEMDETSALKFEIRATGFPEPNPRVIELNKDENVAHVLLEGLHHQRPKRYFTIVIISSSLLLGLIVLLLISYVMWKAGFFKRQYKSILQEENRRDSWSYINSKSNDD
T1 sequence (P05556 21-798, form in doubt, chain 2 of 2): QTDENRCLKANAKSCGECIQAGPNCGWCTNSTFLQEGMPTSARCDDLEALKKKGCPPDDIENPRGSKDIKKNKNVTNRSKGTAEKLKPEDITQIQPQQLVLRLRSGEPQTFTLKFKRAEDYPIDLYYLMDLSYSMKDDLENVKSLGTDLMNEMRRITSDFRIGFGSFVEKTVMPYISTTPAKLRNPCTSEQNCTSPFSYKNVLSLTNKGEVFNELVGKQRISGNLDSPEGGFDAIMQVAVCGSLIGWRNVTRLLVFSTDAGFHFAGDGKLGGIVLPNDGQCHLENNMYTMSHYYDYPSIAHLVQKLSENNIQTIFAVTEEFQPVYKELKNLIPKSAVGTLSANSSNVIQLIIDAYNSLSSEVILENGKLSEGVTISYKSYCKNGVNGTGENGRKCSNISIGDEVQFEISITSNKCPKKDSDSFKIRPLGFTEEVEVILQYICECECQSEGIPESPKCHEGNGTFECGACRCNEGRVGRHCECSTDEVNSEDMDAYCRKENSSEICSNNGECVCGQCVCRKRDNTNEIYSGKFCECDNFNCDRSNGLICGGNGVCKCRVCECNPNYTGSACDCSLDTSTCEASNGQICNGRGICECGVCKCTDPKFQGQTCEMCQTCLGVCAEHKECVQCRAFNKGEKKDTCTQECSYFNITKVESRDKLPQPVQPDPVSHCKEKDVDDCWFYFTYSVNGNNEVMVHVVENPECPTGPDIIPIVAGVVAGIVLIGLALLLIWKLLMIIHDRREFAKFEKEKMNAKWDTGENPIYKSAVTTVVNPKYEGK

B1: Chimeric HP1/2 Fab (murine VH and VL domains) (Fab, V domains shown)
VH: EVQLQQSGAELVKPGASVKLSCTASGFNIKDTYMHWVKQRPEQGLEWIGRIDPASGDTKYDPKFQVKATITADTSSNTAWLQLSSLTSEDTAVYYCADGMWVSTGYALDFWGQGTTVTVSS
VL: SIVMTQTPKFLLVSAGDRVTITCKASQSVTNDVAWYQQKPGQSPKLLIYYASNRYTGVPDRFTGSGYGTDFTFTISTVQAEDLAVYFCQQDYSSPYTFGGGTKLEIK
notes: Fab fragment; Constant parts (CH1, CL) are not specified; detection was with goat anti-human IgG HRP conjugate; also called chimeric Fab
By EC50 is commonly meant the concentration that produces a half-maximal response. B1 displayed an EC50 of 0.052 nM.

B2: Humanized HP1/2 Fab V24A_T32V (Fab, V domains shown)
VH: EVQLVQSGAEVKKPGATVKISCKASGFNIKDVYMHWVQQAPGKGLEWMGRIDPASGDTKYDPKFQVRVTITADTSTDTAYMELSSLRSEDTAVYYCATGMWVSTGYALDFWGQGTLVTVSS
VL: DIVMTQSPDSLAVSLGERATINCKASQSVTNDVAWYQQKPGQPPKLLIYYASNRYTGVPDRFSGSGSGTDFTLTISSLQAEDVAVYYCQQDYSSPYTFGQGTKVEIK
notes: Fab fragment; Constant parts are not specified
On to B2, for which it took 0.066 nM to reach a half-maximal effect (EC50).

B3: Humanized HP1/2 Fab V24S_F27Y_T32V (Fab, V domains shown)
VH: EVQLVQSGAEVKKPGATVKISCKSSGYNIKDVYMHWVQQAPGKGLEWMGRIDPASGDTKYDPKFQVRVTITADTSTDTAYMELSSLRSEDTAVYYCATGMWVSTGYALDFWGQGTLVTVSS
VL: DIVMTQSPDSLAVSLGERATINCKASQSVTNDVAWYQQKPGQPPKLLIYYASNRYTGVPDRFSGSGSGTDFTLTISSLQAEDVAVYYCQQDYSSPYTFGQGTKVEIK
notes: as for B2
As for B3, the EC50 was found to be 0.032 nM.

B4: HP1/2 Fab, straight CDR graft (VH CDR graft paired with VL CDR graft) (Fab, V domains shown)
VH: EVQLVQSGAEVKKPGATVKISCKVSGFNIKDTYMHWVQQAPGKGLEWMGRIDPASGDTKYDPKFQVRVTITADTSTDTAYMELSSLRSEDTAVYYCATGMWVSTGYALDFWGQGTLVTVSS
VL: DIVMTQSPDSLAVSLGERATINCKASQSVTNDVAWYQQKPGQPPKLLIYYASNRYTGVPDRFSGSGSGTDFTLTISSLQAEDVAVYYCQQDYSSPYTFGQGTKVEIK
notes: as for B2
For the molecule B4, the EC50 worked out at 1.1 nM.

B5: Humanized HP1/2 Fab F27Y_T32V_M96L (VH SEQ ID NO: 25) (Fab, V domains shown)
VH: EVQLVQSGAEVKKPGATVKISCKVSGKNIKDVYMHWVQQAPGKGLEWMGRIDPASGDTKYDPKFQVRVTITADTSTDTAYMELSSLRSEDTAVYYCATGLWVSTGYALDFWGQGTLVTVSS
VL: DIVMTQSPDSLAVSLGERATINCKASQSVTNDVAWYQQKPGQPPKLLIYYASNRYTGVPDRFSGSGSGTDFTLTISSLQAEDVAVYYCQQDYSSPYTFGQGTKVEIK
notes: as for B2
Take B5: the EC50 came out at 0.14 nM. Compared with the last molecule, the EC50 is about 7.9-fold lower.

B6: Humanized HP1/2 Fab V24F_T32V (Fab, V domains shown)
VH: EVQLVQSGAEVKKPGATVKISCKFSGFNIKDVYMHWVQQAPGKGLEWMGRIDPASGDTKYDPKFQVRVTITADTSTDTAYMELSSLRSEDTAVYYCATGMWVSTGYALDFWGQGTLVTVSS
VL: DIVMTQSPDSLAVSLGERATINCKASQSVTNDVAWYQQKPGQPPKLLIYYASNRYTGVPDRFSGSGSGTDFTLTISSLQAEDVAVYYCQQDYSSPYTFGQGTKVEIK
notes: as for B2
B6 returned an EC50 of 0.13 nM.
